Results on one molecule are retold here after paper PMC4703387, “Identification of the Calmodulin-Binding Domains of Fas Death Receptor” (PLoS ONE, 2016).

The experiment concerns the target T1, calmodulin, calcium-bound (Ca2+/CaM) (UniProt P0DP23 1-149).
T1 construct: all experiments in the presence of calcium; Used unlabelled or 15N/13C-labelled; also called full-length Ca^2+/CaM
As to the kind of experiment: NMR titration; 2D 1H-15N HSQC; unlabelled peptide titrated into 15N-labelled Ca2+/CaM, Ca2+/CaM-N or Ca2+/CaM-C (100-150 uM), 35°C, 50 mM Tris-d11 pH 7.0, 100 mM NaCl, 5 mM CaCl2; Kd by one-site fit of chemical shift changes. The note with it: both partners purified.

B1: FasDD(224-238) peptide (peptide)
peptide: MTLSQVKGFVRKNGV
notes: also called FasDD(228–238); source: synthetic peptide, bought: Genscript (>95% purity)
Regarding B1, the binding result is listed as “binds”.
